Test results reported in patent US20260364189 (published 2026).
Substitutions are numbered along the chain they refer to.

T1: fasTFR1 (cell-expressed) (Macaca fascicularis)
T1 chain: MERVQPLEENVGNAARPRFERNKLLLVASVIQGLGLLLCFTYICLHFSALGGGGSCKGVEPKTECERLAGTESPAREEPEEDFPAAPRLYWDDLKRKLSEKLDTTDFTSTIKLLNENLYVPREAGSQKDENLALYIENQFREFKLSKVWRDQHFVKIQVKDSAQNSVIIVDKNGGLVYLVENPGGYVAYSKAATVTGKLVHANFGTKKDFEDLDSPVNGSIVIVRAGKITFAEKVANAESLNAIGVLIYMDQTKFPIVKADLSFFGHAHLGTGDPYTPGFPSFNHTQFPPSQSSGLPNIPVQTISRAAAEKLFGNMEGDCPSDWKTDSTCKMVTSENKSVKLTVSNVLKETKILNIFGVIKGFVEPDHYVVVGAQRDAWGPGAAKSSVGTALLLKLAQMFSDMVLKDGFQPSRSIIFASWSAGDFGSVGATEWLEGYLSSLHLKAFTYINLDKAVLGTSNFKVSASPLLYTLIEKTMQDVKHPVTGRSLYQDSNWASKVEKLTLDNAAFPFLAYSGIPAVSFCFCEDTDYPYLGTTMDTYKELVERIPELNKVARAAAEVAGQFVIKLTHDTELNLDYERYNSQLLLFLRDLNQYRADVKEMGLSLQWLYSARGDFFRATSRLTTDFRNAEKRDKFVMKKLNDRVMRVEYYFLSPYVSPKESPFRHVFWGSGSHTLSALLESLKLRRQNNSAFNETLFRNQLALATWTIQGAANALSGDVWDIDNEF

B1: 24C9 (antibody, V domains shown)
VH: EVQLVQSGGGVVQPGRSLRLSCAASGFTLSSYGMYWVRQAPGKGREWVAFIRFDESKKYYADSVKGRFTISRDNSKNTLYLQMNSLRAEDTAVYYCARDGEGGYCTNGVCHGLDVWGQGTTVTVSS
B2: 23B8 (antibody, V domains shown)
VH: QVTLKESGGGLVKPGGSLRLSCAASGFPFSNAWMNWVRQAPGKGLEWVGHIKSKTDGGTTDYAAPVKGRFTISRDDSKNMVFLQMNSLKTEDTAVYYCTTDRAYCGGDCSHYYYHDLDVWGQGTTVTVSS
B3: 24G5 (designed binder)
chain: QLQLQESGGGLVQPGGSLRLTCAASGFTFSSFAMSWVRQAPGKGLERVSEISDSGGNTYYADSVKGRFTISRDNSKNTLYLQMNSLRAEDTAVYYCAKDDSSGWAFNIWDQGTVVTVSS
B4: 24A1 (designed binder)
chain: B3 chain with Q1E, L2V, Q5V, F32Y, D53G, G56S, N57S, Y59N

Key:
fasTFR1 (cell-expressed) = biological target: T1, fasTFR1 (cell-expressed); assay: FACS
hTFR1-His = hTFR1-His (human, UniProt P02786); assay: SPR
Sequence of hTFR1-His (P02786 89-760): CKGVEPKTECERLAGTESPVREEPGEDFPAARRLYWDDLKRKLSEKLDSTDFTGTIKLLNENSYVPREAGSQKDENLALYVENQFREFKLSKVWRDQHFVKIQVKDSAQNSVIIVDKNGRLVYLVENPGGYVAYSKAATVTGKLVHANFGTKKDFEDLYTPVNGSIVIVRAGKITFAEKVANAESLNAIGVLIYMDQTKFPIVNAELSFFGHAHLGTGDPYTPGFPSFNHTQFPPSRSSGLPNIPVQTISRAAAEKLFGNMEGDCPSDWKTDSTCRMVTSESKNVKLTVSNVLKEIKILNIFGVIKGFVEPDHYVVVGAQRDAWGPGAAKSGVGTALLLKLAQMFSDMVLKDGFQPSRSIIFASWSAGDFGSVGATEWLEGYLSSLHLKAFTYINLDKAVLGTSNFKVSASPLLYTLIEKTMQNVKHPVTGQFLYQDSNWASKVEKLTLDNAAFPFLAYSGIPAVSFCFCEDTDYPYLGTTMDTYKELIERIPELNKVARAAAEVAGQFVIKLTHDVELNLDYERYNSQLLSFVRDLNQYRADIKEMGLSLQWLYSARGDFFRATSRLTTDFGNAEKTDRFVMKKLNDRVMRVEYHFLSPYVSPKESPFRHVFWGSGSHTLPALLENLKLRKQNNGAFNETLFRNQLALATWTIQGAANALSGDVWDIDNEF

Binder | binding result (fasTFR1 (cell-expressed)) | Kd (hTFR1-His)
B1 | no binding | 14.3 nM
B2 |  | 8.73 nM
B3 |  | 2.05 nM
B4 |  | 2.93 nM
